# Results from the RNAGym collection of RNA variant scans (doi:10.7554/elife.90254).
# B1: LINE1-full (parent)
# chain: UACGUAGGUGGUUUUCCCCUGAUAGUGCUAAGGGGGCCUGGAAGUUUGGACUGGGCAGAGCUCAACACAGCGUGGCAAAGUGGCUGUGGCUAGACUGCCUCUCUGGAUUCCUCGUCACUCAGCAGGGCAUCUCUGAGAGAAAUGCC
# Variants of: B1
# Test: self-cleavage, relative activity (ratio to wild type); higher = more cleavage; in vitro, sequencing; the parent is a self-cleaving ribozyme
row,Variant,self-cleavage
1,A50U G144C,0.79
2,C18A G88U,0.12
3,U73C U115C,1.63
4,U119C A136G,1.98
5,C28U U96A,0.06
6,A78G U143A,1.11
7,A79G C120U,1.26
8,G34C U73C,1.82
9,A79U G89C,0.02
10,U46C A69G,0.85
11,A22G C76G,2.86
12,G33U U62C,0.04
13,C19U G34A,0.75
14,A69U U115C,0.07
15,A78G U112A,0.7
16,G32A G86U,0.12
17,A79U A124U,0.67
18,A30U U46G,1.14
19,C95U A121G,0.33
20,U45C C56U,0.12
21,A57U A77U,0.05

row,Variant,self-cleavage
1,G54A A129G,0.76
2,C37U U62C,0.04
3,U130A,1.42
4,U9C G34C,0.8
5,G88A U132C,0.09
6,A57C A92U,0
7,C19U A138G,1.01
8,U46A U104A,0.9
9,U26A U45G,0.6
10,A59G U100A,0.07
11,G10A C99A,0.42
12,A78G U102A,1.24
13,C128A U134A,0.3
14,A64G G125A,0.31
15,A77U G126A,1.46
16,G11A U62G,0.03
17,U132C A140U,1.43
18,U73C A141U,1.53
19,A124G C128A,0.46
20,C116U A129G,0.93
21,A24U U115A,1.54

row,Variant,self-cleavage
1,C19A U52C,0.51
2,A22G U119A,2.19
3,U29C U104A,1.12
4,G40A U109C,0.88
5,A22G A124C,1.49
6,G35C C113A,1.68
7,U9A C51A,1.47
8,A22U G105A,1.29
9,G137C A138G,1.26
10,C17U U112C,1.49
11,U62A A94G,0.04
12,A50G A65G,0.14
13,U12G G114A,1.07
14,C84A U108A,0.12
15,U112A U134A,1.09
16,U112A U134C,1.56
17,A22C U81C,1.04
18,U12G C98U,0.41
19,A57G G58A,0.03
20,A22G C63A,0.05
21,U12A A59U,0.56

row,Variant,self-cleavage
1,U112C C145A,1.39
2,G7A A30U,0.92
3,G7U U13C,0.99
4,A94U U119C,0.28
5,A65U U108C,0.4
6,U9A A117U,1.11
7,U1C G106A,0.73
8,U15C A94U,0.67
9,U52C A69U,0.1
10,U73A A79G,1.2
11,C128U U130C,1.35
12,U15A A136U,0.35
13,U12A G32A,1.08
14,U87A C98U,0.05
15,U87C U96C,0.27
16,U12G U26C,0.57
17,C37U G55A,0.12
18,U102C U134C,1.55
19,C116A U132A,0.67
20,A57U C110A,0.19
21,A2G A69U,0.15
